Legend:
[1] = molecular target: T1, rHuman Erythropoietin R/Fc Chimera, CF (R&D Systems Cat#963-ER) (human, UniProt P19235 25-250); assay: MSD multispot ECL, antigen spotted, Fab 2.3 nM; blank spot 234
T1 construct: Bought reagent; also called EPO R/Fc; Epo R
T1 sequence (looked up): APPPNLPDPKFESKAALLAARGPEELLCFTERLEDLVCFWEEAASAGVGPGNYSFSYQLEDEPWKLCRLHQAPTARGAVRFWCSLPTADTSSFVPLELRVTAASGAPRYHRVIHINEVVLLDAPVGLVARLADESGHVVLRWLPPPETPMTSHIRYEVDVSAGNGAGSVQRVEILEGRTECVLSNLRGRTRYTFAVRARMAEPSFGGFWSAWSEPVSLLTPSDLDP

[2] = molecular target: T2, rHuman ErbB2/Fc Chimera, CF (R&D Systems Cat#1129-ER) (human, UniProt P04626 23-652); assay: as above
T2 construct: Bought reagent; also called human epidermal growth factor 2 receptor

[3] = molecular target: T3, rHuman EGF R/Fc Chimera, CF (R&D Systems Cat#344-ER) (human, UniProt P00533 25-645); assay: as above
T3 construct: Bought reagent; also called epidermal growth factor receptor

[4] = molecular target: T4, rHuman IGF-1 sR, (IGF-1 sR), CF (R&D Systems Cat#391-GR) (human, UniProt P08069 31-932); assay: as above
T4 construct: Bought soluble receptor; also called insulin-like growth factor-1 soluble receptor

[5] = molecular target: T5, Recombinant Human DLL4 (R&D Systems Cat#1506-D4/CF) (human, UniProt Q9NR61 27-524); assay: as above
T5 construct: Bought recombinant protein; also called rHuman DLL4; delta-like protein 4

[6] = molecular target: T6, rHuman Notch-1/Fc Chimera, CF (R&D Systems Cat#3647-TK) (human, UniProt P46531 19-526); assay: as above
T6 construct: Bought reagent

[7] = molecular target: T7, rHuman CD44/Fc Chimera, CF (R&D Systems Cat#3660-CD) (human, UniProt P16070 21-220); assay: as above
T7 construct: Bought reagent

[8] = molecular target: T8, rHuman HGF R/c-MET/Fc Chimera, CF (R&D Systems Cat#358-MT/CF) (human, UniProt P08581 25-932); assay: as above
T8 construct: Bought reagent; also called HGF R/Fc; hepatocyte growth factor receptor

[9] = molecular target: T9, rHuman ErbB2/Fc Chimera, CF (R&D Systems Cat#1129-ER) (human, UniProt P04626 23-652); assay: MSD multispot ECL, antigen spotted on plate, Fab 352.5 nM; blank spot 494
T9 construct: Bought from R&D Systems; also called human epidermal growth factor 2 receptor (ErbB2); not shown: Fc of the bought chimera

[10] = molecular target: T10, rHuman HGF R/c-MET/Fc Chimera, CF (R&D Systems Cat#358-MT/CF) (human, UniProt P08581 25-932); assay: MSD multispot ECL, antigen spotted on plate; Fab 0.03188 uM; blank spot 536
T10 construct: Bought recombinant protein; also called HGF R/Fc; hepatocyte growth factor receptor; Fc part of the bought chimera not given

[11] = molecular target: T11, rHuman CD44/Fc Chimera, CF (R&D Systems Cat#3660-CD) (human, UniProt P16070 21-220); assay: as above
T11 construct: Bought recombinant protein; Fc part of the bought chimera not given

[12] = molecular target: T12, rHuman ErbB2/Fc Chimera, CF (R&D Systems Cat#1129-ER) (human, UniProt P04626 23-652); assay: as above
T12 construct: Bought recombinant protein; also called human epidermal growth factor 2 receptor; Fc part of the bought chimera not given

[13] = molecular target: T13, rHuman P-Cadherin/Fc Chimera, CF (R&D Systems Cat#861-PC) (human, UniProt P22223 108-654); assay: as above
T13 construct: Bought recombinant protein; Fc part of the bought chimera not given

[14] = molecular target: T14, Recombinant Human DLL4 (R&D Systems Cat#1506-D4/CF) (human, UniProt Q9NR61 27-524); assay: as above
T14 construct: Bought recombinant protein; also called delta-like protein 4; rHuman DLL4

[15] = molecular target: T15, rHuman Erythropoietin R/Fc Chimera, CF (R&D Systems Cat#963-ER) (human, UniProt P19235 25-250); assay: as above
T15 construct: Bought recombinant protein; also called EPO R/Fc; Epo R; Fc part of the bought chimera not given
T15 sequence (looked up): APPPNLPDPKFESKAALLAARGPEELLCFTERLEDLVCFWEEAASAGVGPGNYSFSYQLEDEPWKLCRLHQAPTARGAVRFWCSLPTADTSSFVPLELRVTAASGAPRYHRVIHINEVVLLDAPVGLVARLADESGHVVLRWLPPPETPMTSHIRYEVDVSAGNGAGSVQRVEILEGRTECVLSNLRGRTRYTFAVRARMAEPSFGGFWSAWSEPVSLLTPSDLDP

[16] = molecular target: T16, rHuman Notch-1/Fc Chimera, CF (R&D Systems Cat#3647-TK) (human, UniProt P46531 19-526); assay: as above
T16 construct: Bought recombinant protein; Fc part of the bought chimera not given

[17] = molecular target: T17, rHuman EGF R/Fc Chimera, CF (R&D Systems Cat#344-ER) (human, UniProt P00533 25-645); assay: as above
T17 construct: Bought recombinant protein; also called epidermal growth factor receptor; Fc part of the bought chimera not given

[18] = molecular target: T18, rHuman IGF-1 sR, CF (R&D Systems Cat#391-GR) (human, UniProt P08069 31-932); assay: as above
T18 construct: Bought recombinant soluble receptor; also called insulin-like growth factor-1 soluble receptor

B1: Fab VH1-46_IGHD6-6*01_IGHJ1*01 & L6_IGKJ1*01 (Fab, V domains shown)
VH: QVQLVQSGAEVKKPGASVKVSCKASGYTFTSYYMHWVRQAPGQGLEWMGIINPSGGSTSYAQKFQGRVTMTRDTSTSTVYMELSSLRSEDTAVYYCAREEYSSSSAEYFQHWGQGTLVTVSS
VL: not shown
notes: Only variable domains are tied to the molecule; Tested as a Fab made in E. coli: heavy chain from Plasmid A (CH1 constant region, His6 and Flag tags), kappa light chain from Plasmid C (kappa CL); also called parent Hit Fab against DLL4; VH1-46_IGHD6-6*01_IGHJ1*01 & L6_IGKJ1*01 (parental)
Binder B1 has an ECL signal [1] of 429 ECL signal, an ECL signal [2] of 291 ECL signal and an ECL signal [3] of 289 ECL signal. The ECL signal [4] was 231 ECL signal, the ECL signal [5] was 3060 ECL signal and the ECL signal [6] was 333 ECL signal. The ECL signal [7] was 317 ECL signal and the ECL signal [8] was 253 ECL signal.

B2: Fab VH1-46_IGHD3-10*01_IGHJ4*01 & B3_IGKJ1*01 (Fab, V domains shown)
VH: QVQLVQSGAEVKKPGASVKVSCKASGYTFTSYYMHWVRQAPGQGLEWMGIINPSGGSTSYAQKFQGRVTMTRDTSTSTVYMELSSLRSEDTAVYYCAREYYYGSGSYYNDYFDYWGQGTLVTVSS
VL: not shown
notes: Tested as a Fab made in E. coli; VH was cloned into Plasmid A (CH1 constant region, His6 and Flag tags); The kappa VL was cloned into Plasmid C (kappa CL)
With B2 the ECL signal [9] was 514.

B3: Fab VH4-34_IGHD7-27*01_IGHJ4*01 & L5_IGKJ1*01 (Fab, V domains shown)
VH: QVQLQQWGAGLLKPSETLSLTCAVYGGSFSGYYWSWIRQPPGKGLEWIGEINHSGSTNYNPSLKSRVTISVDTSKNQFSLKLSSVTAADTAVYYCARANWGDYFDYWGQGTLVTVSS
VL: DIQMTQSPSSVSASVGDRVTITCRASQGISSWLAWYQQKPGKAPKLLIYAASSLQSGVPSRFSGSGSGTDFTLTISSLQPEDFATYYCQQANSFPPWTFGQGTKVEIKR
notes: Germline library Fab expressed in E. coli; VH was cloned into Plasmid A, which adds CH1 with His6 and Flag tags
For B3, the ECL signal [10] was 693, the ECL signal [11] was 653 and the ECL signal [12] was 584. The ECL signal [13] was 775, the ECL signal [14] was 1280 and the ECL signal [15] was 789. It also gave an ECL signal [16] of 849, an ECL signal [17] of 694 and an ECL signal [18] of 765.

From patent US20120316071A1 (published 2012)
